Drawing on paper PMC6013482, “Conformational switching of the pseudokinase domain promotes human MLKL tetramerization and cell death by necroptosis” (Nature Communications, 2018), this text covers liposome dye release (5(6)-carboxyfluorescein), 1 μM protein, with ATP (% maximum dye release) and liposome dye release (5(6)-carboxyfluorescein), 1 μM protein, without ATP for one substance.

The target of this assay is E351K human MLKL (residues 2–471), recombinant (human) (UniProt Q8NB16).

Take “E351K human MLKL (residues 2–471), recombinant (from UniProt Q8NB16 2-471) (natural protein)”: the liposome dye release (5(6)-carboxyfluorescein), 1 μM protein, with ATP (% maximum dye release) stood at 40 and the liposome dye release (5(6)-carboxyfluorescein), 1 μM protein, without ATP is 15 % of maximum.
